Measured values reported in patent US20140259226.

What was measured:
[1] = molecular target: T1, PYR1^CA4 (H60P, V83F, F159V, M158I), 6xHis fusion
T1 chain: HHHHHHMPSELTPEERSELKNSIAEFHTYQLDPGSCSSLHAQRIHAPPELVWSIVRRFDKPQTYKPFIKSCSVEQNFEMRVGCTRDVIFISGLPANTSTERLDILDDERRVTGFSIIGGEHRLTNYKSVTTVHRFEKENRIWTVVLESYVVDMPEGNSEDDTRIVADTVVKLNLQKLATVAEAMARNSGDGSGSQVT

6x-His-PYL10, wild type = molecular target: T2, 6x-His-PYL10, wild type
T2 chain: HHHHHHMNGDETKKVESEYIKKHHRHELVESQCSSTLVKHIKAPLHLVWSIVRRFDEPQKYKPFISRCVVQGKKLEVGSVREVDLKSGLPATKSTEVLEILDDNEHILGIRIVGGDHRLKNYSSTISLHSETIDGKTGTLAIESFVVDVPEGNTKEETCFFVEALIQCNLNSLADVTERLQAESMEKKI

6x-His-PYL6, wild type = molecular target: T3, 6x-His-PYL6, wild type
T3 chain: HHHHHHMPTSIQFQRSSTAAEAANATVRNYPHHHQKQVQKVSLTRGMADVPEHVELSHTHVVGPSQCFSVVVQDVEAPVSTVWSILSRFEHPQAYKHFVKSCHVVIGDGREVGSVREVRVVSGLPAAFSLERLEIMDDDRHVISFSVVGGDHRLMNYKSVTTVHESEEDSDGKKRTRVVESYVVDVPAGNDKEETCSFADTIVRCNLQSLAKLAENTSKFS

[2] = molecular target: T4, PYR1^CA3 (H60P, V83F, F159V), 6xHis fusion
T4 chain: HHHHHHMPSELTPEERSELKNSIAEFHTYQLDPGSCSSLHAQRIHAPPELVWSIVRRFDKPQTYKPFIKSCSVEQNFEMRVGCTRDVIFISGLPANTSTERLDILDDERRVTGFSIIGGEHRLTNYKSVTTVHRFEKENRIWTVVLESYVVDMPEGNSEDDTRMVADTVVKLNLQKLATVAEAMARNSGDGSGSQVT

[3] = molecular target: T5, PYL9^CA4C (A91W, Y160I, F161V), 6xHis fusion
T5 chain: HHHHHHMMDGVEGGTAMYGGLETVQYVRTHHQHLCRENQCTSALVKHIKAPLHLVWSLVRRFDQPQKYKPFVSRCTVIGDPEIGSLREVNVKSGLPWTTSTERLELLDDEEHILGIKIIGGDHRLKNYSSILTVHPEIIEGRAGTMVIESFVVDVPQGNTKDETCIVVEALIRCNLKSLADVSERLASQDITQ

[4] = molecular target: T6, PYR1^CA4B (V83F, M158I, F159V, K170W), 6xHis fusion
T6 chain: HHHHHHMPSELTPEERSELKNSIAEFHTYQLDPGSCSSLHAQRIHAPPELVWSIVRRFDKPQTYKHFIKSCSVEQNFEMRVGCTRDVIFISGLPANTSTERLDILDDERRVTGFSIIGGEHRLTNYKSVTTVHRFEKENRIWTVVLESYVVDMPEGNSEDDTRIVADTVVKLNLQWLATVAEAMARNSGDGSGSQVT

6X His-PYR1 A89W = molecular target: T7, 6X His-PYR1 A89W
T7 chain: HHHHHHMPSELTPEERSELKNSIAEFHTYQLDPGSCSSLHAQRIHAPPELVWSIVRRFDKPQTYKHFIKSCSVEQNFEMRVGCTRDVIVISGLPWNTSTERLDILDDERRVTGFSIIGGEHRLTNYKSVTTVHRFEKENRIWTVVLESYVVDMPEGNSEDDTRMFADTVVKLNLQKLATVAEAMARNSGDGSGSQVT

6X His-PYR1 M158I = molecular target: T8, 6X His-PYR1 M158I
T8 chain: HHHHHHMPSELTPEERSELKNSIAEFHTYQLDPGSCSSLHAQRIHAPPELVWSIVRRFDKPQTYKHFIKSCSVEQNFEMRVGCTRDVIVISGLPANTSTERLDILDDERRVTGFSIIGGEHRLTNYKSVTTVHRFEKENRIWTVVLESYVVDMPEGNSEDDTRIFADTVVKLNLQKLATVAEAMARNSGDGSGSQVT

[5] = molecular target: T9, PYR1^CA4C (H60P, A89W, M158I, F159V), 6xHis fusion
T9 chain: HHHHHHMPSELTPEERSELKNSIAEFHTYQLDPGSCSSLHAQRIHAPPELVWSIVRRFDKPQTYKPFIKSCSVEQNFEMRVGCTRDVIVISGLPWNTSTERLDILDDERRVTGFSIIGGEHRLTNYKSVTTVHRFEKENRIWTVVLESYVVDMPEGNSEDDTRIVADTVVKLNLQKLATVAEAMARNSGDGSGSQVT

[6] = molecular target: T10, PYL2^CA4C (H65P, A93W, M164I, F165V), 6xHis fusion
T10 chain: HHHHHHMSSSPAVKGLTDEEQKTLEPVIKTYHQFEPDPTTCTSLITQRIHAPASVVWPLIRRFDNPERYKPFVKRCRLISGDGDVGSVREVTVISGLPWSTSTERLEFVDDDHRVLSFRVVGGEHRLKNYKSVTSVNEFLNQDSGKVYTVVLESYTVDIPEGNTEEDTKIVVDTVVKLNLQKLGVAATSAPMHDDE

6X His-PYR1 K170W = molecular target: T11, 6X His-PYR1 K170W
T11 chain: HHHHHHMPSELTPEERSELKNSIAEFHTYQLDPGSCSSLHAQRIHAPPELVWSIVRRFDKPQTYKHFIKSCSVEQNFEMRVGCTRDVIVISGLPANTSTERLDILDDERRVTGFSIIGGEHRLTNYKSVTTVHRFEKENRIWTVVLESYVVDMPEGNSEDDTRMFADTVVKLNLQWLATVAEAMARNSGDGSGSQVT

6X His-PYR1 H60P = molecular target: T12, 6X His-PYR1 H60P
T12 chain: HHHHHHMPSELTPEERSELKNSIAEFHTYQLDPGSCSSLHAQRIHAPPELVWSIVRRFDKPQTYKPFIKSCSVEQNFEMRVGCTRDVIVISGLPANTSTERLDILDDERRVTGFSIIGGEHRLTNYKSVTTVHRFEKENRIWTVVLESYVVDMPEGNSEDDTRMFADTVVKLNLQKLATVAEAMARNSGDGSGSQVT

6X His-PYR1 I84Q = molecular target: T13, 6X His-PYR1 I84Q
T13 chain: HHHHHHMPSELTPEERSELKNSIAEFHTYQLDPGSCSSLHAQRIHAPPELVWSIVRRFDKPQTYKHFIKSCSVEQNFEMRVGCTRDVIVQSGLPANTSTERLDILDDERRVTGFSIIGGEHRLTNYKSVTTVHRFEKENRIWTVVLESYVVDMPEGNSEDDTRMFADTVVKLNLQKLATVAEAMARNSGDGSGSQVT

6X His-PYR1 V83F = molecular target: T14, 6X His-PYR1 V83F
T14 chain: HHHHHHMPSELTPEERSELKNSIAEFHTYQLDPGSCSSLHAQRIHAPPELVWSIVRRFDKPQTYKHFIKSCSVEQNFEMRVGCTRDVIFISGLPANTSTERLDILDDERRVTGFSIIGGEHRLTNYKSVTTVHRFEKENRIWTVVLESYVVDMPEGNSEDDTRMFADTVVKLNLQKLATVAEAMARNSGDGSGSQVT

6X His-PYR1 F159V = molecular target: T15, 6X His-PYR1 F159V
T15 chain: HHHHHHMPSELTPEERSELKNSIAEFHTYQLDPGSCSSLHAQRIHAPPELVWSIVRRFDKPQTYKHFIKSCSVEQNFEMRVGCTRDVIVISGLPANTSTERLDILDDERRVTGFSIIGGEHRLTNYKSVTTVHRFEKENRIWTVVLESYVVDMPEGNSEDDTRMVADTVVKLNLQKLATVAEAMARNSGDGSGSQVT

6X His-PYR1 T162F = molecular target: T16, 6X His-PYR1 T162F
T16 chain: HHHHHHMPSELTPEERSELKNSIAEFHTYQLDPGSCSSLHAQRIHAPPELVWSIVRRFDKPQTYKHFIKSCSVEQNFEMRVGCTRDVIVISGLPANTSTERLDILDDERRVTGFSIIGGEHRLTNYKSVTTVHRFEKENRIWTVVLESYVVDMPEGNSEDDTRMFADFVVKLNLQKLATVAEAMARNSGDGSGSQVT

B1: GST-HAB1 (protein)
chain: SPVEITQLKNVTDAADLLSDSENQSFCNGGTECTMEDVSELEEVGEQDLLKTLSDTRSGSSNVFDEDDVLSVVEDNSAVISEGLLVVDAGSELSLSNTAMEIDNGRVLATAIIVGESSIEQVPTAEVLIAGVNQDTNTSEVVIRLPDENSNHLVKGRSVYELDCIPLWGTVSIQGNRSEMEDAFAVSPHFLKLPIKMLMGDHEGMSPSLTHLTGHFFGVYDGHGGHKVADYCRDRLHFALAEEIERIKDELCKRNTGEGRQVQWDKVFTSCFLTVDGEIEGKIGRAVVGSSDKVLEAVASETVGSTAVVALVCSSHIVVSNCGDSRAVLFRGKEAMPLSVDHKPDREDEYARIENAGGKVIQWQGARVFGVLAMSRSIGDRYLKPYVIPEPEVTFMPRSREDECLILASDGLWDVMNNQEVCEIARRRILMWHKKNGAPPLAERGKGIDPACQAAADYLSMLALQKGSKDNISIIVIDLKAQRKFKTRT
- PP2C activity, % of control, pNPP hydrolysis, in the absence of ABA [1]: both the triple and quadruple mutants dramatically increased basal PYR1 activity relative to wild-type PYR1
- PP2C activity, % of control, pNPP hydrolysis, with 0 or 10 µM ABA (6x-His-PYL10, wild type): PYL6 and PYL10, which have high basal activities ..., are not full CA receptors
- PP2C activity, % of control, pNPP hydrolysis, with 0 or 10 µM ABA (6x-His-PYL6, wild type): PYL6 and PYL10, which have high basal activities ..., are not full CA receptors
- PP2C activity, % of control, pNPP hydrolysis, in the absence of ABA [2]: both the triple and quadruple mutants dramatically increased basal PYR1 activity relative to wild-type PYR1
- PP2C activity, % of control, pNPP hydrolysis, in the absence of ABA [3]: the mutant proteins were highly activated in the absence of ABA in comparison to wild-type PYL2 or PYL9
- PP2C activity, % of control, pNPP hydrolysis, in the absence of ABA [4]: both the PYR1^CA4B and PYR1^CAc mutants dramatically increased basal PYR1 activity relative to wild-type PYR1
- HAB1 phosphatase (PP2C) activity, % of control, pNPP hydrolysis, in the absence of ABA (6X His-PYR1 A89W): each of the activating mutants increased basal receptor activity in comparison to wild-type PYR1
- HAB1 phosphatase (PP2C) activity, % of control, pNPP hydrolysis, in the absence of ABA (6X His-PYR1 M158I): each of the activating mutants increased basal receptor activity in comparison to wild-type PYR1
- PP2C activity, % of control, pNPP hydrolysis, in the absence of ABA [5]: both the PYR1^CA4B and PYR1^CAc mutants dramatically increased basal PYR1 activity relative to wild-type PYR1
- PP2C activity, % of control, pNPP hydrolysis, in the absence of ABA [6]: the mutant proteins were highly activated in the absence of ABA in comparison to wild-type PYL2 or PYL9
- HAB1 phosphatase (PP2C) activity, % of control, pNPP hydrolysis, in the absence of ABA (6X His-PYR1 K170W): each of the activating mutants increased basal receptor activity in comparison to wild-type PYR1
- HAB1 phosphatase (PP2C) activity, % of control, pNPP hydrolysis, in the absence of ABA (6X His-PYR1 H60P): each of the activating mutants increased basal receptor activity in comparison to wild-type PYR1
- HAB1 phosphatase (PP2C) activity, % of control, pNPP hydrolysis, in the absence of ABA (6X His-PYR1 I84Q): each of the activating mutants increased basal receptor activity in comparison to wild-type PYR1
- HAB1 phosphatase (PP2C) activity, % of control, pNPP hydrolysis, in the absence of ABA (6X His-PYR1 V83F): each of the activating mutants increased basal receptor activity in comparison to wild-type PYR1
- HAB1 phosphatase (PP2C) activity, % of control, pNPP hydrolysis, in the absence of ABA (6X His-PYR1 F159V): each of the activating mutants increased basal receptor activity in comparison to wild-type PYR1
- HAB1 phosphatase (PP2C) activity, % of control, pNPP hydrolysis, in the absence of ABA (6X His-PYR1 T162F): each of the activating mutants increased basal receptor activity in comparison to wild-type PYR1
